Assay [1] deals with T1, Pan1 (recombinantly purified, unpublished data) (yeast, UniProt P32521 1-1480).
T1 sequence (looked up): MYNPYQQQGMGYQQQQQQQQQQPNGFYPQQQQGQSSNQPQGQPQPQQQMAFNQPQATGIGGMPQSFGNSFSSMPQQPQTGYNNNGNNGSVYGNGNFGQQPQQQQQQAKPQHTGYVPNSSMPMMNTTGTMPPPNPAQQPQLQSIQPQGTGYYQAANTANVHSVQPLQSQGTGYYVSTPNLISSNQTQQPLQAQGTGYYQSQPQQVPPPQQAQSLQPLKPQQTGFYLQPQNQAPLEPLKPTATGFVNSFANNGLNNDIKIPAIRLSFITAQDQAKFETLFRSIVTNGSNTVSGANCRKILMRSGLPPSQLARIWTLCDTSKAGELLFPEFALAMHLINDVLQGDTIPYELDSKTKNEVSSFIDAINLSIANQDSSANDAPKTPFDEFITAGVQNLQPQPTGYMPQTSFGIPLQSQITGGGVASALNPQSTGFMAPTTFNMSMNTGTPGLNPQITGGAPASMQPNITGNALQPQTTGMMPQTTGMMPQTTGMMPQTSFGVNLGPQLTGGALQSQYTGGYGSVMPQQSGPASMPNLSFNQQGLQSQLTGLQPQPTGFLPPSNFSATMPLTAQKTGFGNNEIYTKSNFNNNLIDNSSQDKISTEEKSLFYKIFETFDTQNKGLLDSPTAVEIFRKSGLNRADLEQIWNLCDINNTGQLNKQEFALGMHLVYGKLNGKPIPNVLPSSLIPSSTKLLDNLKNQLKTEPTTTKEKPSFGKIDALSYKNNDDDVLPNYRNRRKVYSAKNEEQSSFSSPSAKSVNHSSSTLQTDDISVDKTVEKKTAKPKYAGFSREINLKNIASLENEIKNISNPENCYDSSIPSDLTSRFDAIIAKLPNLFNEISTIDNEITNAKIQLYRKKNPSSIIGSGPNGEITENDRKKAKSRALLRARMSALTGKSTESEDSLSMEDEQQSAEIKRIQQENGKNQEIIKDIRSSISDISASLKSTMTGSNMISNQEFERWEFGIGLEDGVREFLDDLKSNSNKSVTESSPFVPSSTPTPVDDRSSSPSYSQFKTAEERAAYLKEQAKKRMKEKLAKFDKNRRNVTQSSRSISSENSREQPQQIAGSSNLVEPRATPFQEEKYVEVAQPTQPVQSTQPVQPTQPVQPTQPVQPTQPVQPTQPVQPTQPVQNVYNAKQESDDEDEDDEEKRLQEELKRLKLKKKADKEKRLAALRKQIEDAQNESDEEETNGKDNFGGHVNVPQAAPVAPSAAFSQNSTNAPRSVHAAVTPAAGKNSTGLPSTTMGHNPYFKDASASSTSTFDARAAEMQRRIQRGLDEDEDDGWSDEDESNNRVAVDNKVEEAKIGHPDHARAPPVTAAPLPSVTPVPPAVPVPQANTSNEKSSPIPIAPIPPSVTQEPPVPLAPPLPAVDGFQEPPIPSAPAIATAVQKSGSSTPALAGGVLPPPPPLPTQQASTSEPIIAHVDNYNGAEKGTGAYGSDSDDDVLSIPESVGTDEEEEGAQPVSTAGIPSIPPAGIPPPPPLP

A further assay deals with T2, Gal4 DBD-Pan1^792–948 (yeast, UniProt P32521 792-948).
T2 sequence (looked up): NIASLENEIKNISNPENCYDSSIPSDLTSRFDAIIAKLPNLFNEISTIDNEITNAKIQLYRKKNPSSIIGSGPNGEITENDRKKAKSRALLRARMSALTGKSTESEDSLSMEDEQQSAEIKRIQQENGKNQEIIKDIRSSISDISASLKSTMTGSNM
Kind of assay: two-hybrid.

Another assay addresses T3, Gal4 DBD-Pan1^687–846 (yeast, UniProt P32521 687-846).
T3 sequence (looked up): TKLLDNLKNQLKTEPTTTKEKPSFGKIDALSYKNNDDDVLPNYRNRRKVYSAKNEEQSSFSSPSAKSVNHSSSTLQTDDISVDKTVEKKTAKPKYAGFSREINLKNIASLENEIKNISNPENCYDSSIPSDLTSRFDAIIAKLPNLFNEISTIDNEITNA
Description: two-hybrid.

Another assay concerns the target T4, Gal4 DBD-Pan1^687–1190 (yeast, UniProt P32521 687-1190).
T4 sequence (looked up): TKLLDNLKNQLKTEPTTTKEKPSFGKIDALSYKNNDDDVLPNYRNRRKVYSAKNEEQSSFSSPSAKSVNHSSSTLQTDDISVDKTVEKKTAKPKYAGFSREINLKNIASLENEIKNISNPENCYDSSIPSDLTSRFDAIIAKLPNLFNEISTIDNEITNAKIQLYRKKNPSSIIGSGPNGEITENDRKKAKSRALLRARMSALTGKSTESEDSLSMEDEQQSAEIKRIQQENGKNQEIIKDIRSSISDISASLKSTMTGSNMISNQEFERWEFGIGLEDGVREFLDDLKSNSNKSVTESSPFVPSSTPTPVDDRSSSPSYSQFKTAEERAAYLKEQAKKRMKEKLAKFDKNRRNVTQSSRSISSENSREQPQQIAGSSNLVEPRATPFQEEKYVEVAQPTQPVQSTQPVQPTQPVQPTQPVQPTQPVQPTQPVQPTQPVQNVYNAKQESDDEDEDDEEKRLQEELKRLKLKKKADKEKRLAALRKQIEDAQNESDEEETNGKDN
Kind of assay: two-hybrid.

B1: End3 (recombinantly purified, unpublished data) (natural protein, yeast, UniProt P39013 1-349, looked up)
chain: MPKLEQFEIKKYWQIFSGLKPIENKVNHDQVLPILYNSKLDSSVLNKIWFLADIDDDDNLDFEEFVICMRLIFDMVNKNISSVPDELPDWLIPGSKVNLIKERKKRKQIENADLPPKKEIKVDWYMSPDDLNQYEKIYNSCAKLTDGTITFNELSTKLSTKFFNISKTDLNKVWSLINPQNLPSIDRDPTFYFIHCLRQRNDLGAEIPASLPNSLAEVCNKKQLSYDLRSSQPPTKRKEEANEVDNLRDNGQNSSSDSSGSNVLSNEDSIKQKYASLTDDQVANMREQLEGLLNYKKSEKTQGGSKLSKRINIRSITDDLDNIEQQVEVLENYLNNKRHELQALQAEIN
As to B1, the “stoichiometry N” value in assay [1] was 1.

B2: Gal4 AD-End3^176–349 (domain or fragment, yeast, UniProt P39013 176-349, looked up)
chain: LINPQNLPSIDRDPTFYFIHCLRQRNDLGAEIPASLPNSLAEVCNKKQLSYDLRSSQPPTKRKEEANEVDNLRDNGQNSSSDSSGSNVLSNEDSIKQKYASLTDDQVANMREQLEGLLNYKKSEKTQGGSKLSKRINIRSITDDLDNIEQQVEVLENYLNNKRHELQALQAEIN
For B2, the “Miller Units” value with Gal4 DBD-Pan1^792–948 was 99.7 Miller Units; in the assay with Gal4 DBD-Pan1^687–846 it was 80.1 Miller Units; with Gal4 DBD-Pan1^687–1190 it was 412 Miller Units.

As usually defined, the stoichiometry N is the number of molecules, sites or subunits per partner or assembly.

(Values after paper PMC3855908 (Traffic (Copenhagen, Denmark), 2013).)
